Measurements taken from patent US20240400614A1, “CLEAVABLE PEPTIDES AND METHODS OF USE THEREOF” (Bright Peak Therapeutics AG, priority 2023, published 2024).
Square brackets hold non-standard residues; d marks the D form. Ends that are not written are not given here. Tyr(3-NO2) = N[C@@H](Cc1ccc(O)c([N+](=O)[O-])c1)C(=O)O; 2Abz = Nc1ccccc1C(=O)O

Columns and labels:
Format in all cases: biochemical
MMP-7 = molecular target: T1, MMP-7 (Homo sapiens, UniProt P09237); assay: FRET peptide cleavage efficiency with MMP-7 (standard pH 7.5; also pH 6.5)
T1 construct: purchased SIGMA CC1059
T1 sequence (P09237 95-267): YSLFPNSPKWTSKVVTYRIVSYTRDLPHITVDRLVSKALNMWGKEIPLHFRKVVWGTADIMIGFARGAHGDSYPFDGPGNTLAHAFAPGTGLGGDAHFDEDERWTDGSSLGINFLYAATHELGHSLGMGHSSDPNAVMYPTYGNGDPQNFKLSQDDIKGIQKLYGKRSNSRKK

matriptase = molecular target: T2, matriptase (Homo sapiens, UniProt Q9Y5Y6); assay: FRET peptide cleavage efficiency with matriptase
T2 construct: purchased R&D Systems 3946-SEB
T2 sequence (Q9Y5Y6 615-855 limits assumed): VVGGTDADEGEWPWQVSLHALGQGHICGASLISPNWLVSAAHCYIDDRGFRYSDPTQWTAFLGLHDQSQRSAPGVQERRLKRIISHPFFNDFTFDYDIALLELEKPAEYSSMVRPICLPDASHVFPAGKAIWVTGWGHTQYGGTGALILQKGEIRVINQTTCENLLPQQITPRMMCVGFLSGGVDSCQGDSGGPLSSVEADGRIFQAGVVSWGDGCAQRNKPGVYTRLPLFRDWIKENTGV

MMP-2 = molecular target: T3, MMP-2 (Homo sapiens, UniProt P08253); assay: FRET peptide cleavage efficiency with MMP-2
T3 construct: purchased SIGMA PF023
T3 sequence (P08253 110-660): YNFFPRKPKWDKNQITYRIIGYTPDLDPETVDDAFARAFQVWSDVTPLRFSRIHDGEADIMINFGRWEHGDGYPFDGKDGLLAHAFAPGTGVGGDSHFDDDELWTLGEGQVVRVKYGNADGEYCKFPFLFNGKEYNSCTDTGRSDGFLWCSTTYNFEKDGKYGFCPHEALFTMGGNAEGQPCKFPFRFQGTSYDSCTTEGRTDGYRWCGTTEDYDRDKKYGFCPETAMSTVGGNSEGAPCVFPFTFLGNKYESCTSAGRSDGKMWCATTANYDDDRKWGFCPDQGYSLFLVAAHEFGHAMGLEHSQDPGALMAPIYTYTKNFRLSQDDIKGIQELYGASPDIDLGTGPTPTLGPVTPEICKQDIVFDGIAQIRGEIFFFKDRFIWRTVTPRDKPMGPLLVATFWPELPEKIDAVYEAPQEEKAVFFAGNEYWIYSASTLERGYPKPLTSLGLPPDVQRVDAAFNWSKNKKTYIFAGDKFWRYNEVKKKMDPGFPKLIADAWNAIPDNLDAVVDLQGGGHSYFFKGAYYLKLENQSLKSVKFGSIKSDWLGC

uPA = uPA (Homo sapiens, UniProt P00749); assay: FRET peptide cleavage efficiency with uPA
MMP-9 = molecular target: T4, MMP-9 (Homo sapiens, UniProt P14780); assay: FRET peptide cleavage efficiency with MMP-9 (standard pH 7.5; also pH 6.5)
T4 construct: purchased SIGMA PF024

[1] = t = 15 min, standard conditions (Table 8)
[2] = t = 60 min, standard conditions (Table 8)
[3] = t = 120 min, standard conditions (Table 8)
[4] = t = 15 min, 200 uM linker, 1 ug/ml protease, 37° C., buffer B pH 9.0
[5] = t = 60 min, 200 uM linker, 1 ug/ml protease, 37° C., buffer B pH 9.0
[6] = 200 uM linker, 1 ug/ml protease, 37° C., buffer B pH 9.0
[7] = t = 15 min, 200 uM linker, 1 ug/ml protease, 37° C., buffer C pH 7.5
[8] = t = 60 min, 200 uM linker, 1 ug/ml protease, 37° C., buffer C pH 7.5
[9] = t = 120 min, 200 uM linker, 1 ug/ml protease, 37° C., buffer C pH 7.5
[10] = t = 15 min, 200 uM linker, 1 ug/ml protease, 37° C., buffer A pH 8.5
[11] = t = 60 min, 200 uM linker, 1 ug/ml protease, 37° C., buffer A pH 8.5
[12] = t = 120 min, 200 uM linker, 1 ug/ml protease, 37° C., buffer A pH 8.5

T4 sequence (P14780 94-707): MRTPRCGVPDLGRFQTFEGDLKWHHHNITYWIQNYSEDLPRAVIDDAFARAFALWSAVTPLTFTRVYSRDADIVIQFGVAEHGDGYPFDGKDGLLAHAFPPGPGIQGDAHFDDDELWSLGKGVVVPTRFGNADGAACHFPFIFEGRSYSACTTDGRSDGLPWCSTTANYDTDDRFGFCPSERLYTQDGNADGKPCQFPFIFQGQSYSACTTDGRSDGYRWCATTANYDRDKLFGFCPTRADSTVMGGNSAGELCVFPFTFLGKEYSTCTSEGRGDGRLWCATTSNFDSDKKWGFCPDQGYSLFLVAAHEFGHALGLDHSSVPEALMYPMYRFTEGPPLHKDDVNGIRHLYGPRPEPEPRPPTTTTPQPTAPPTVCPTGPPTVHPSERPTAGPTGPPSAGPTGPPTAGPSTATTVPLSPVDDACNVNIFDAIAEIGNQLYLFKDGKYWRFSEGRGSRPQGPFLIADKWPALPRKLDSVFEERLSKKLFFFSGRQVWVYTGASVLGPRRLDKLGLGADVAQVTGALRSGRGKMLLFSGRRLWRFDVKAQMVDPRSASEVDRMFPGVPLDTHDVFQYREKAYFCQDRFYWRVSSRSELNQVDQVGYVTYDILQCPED

RGRKSPYMLQG ([2Abz]RGRKSPYMLQG[Tyr(3-NO2)]-NH2) [LNK037]
% cleavage MMP-7 t = 15 min (MMP-7; t = 15 min (Table 9)): 19%
% cleavage MMP-7 t = 15 min (MMP-7; [1]): 19%
% cleavage MMP-7 t = 60 min (MMP-7; t = 60 min (Table 9)): 63%
% cleavage MMP-7 t = 60 min (MMP-7; [2]): 63%
% cleavage MMP-7 t = 120 min (MMP-7; t = 120 min (Table 9)): 88%
% cleavage MMP-7 t = 120 min (MMP-7; [3]): 88%
% cleavage Matriptase t = 15 min (matriptase; [1]): 90%
% cleavage Matriptase t = 60 min (matriptase; [2]): 100%
% cleavage Matriptase t = 120 min (matriptase; standard conditions (Table 8)): 100%
% cleavage MMP-2 t = 15 min (MMP-2; t = 15 min (Table 9)): 28%
% cleavage MMP-2 t = 60 min (MMP-2; t = 60 min (Table 9)): 70%
% cleavage MMP-2 t = 60 min (MMP-2; [2]): 70%
% cleavage MMP-2 t = 120 min (MMP-2; t = 120 min (Table 9)): 89%
% cleavage MMP-2 t = 120 min (MMP-2; [3]): 89%
% vcleavage uPA t = 15 min (uPA; [1]): 0%
% cleavage uPA t = 60 min (uPA; [2]): 0%
% cleavage uPA t = 120 min (uPA; [3]): 0%
% cleavage MMP-9 t = 15 min (MMP-9; t = 15 min (Table 9)): 46%
% cleavage MMP-9 t = 15 min (MMP-9; [1]): 46%
% cleavage MMP-9 t = 60 min (MMP-9; t = 60 min (Table 9)): 100%
% cleavage MMP-9 t = 60 min (MMP-9; [2]): 100%
% cleavage MMP-9 t = 120 min (MMP-9; t = 120 min (Table 9)): 100%
% cleavage MMP-9 t = 120 min (MMP-9; [3]): 100%

SGRVANLVG (not fully specified (N-terminus, C-terminus)) [LNK017]
% cleavage MMP-7 t = 15 min (MMP-7; t = 15 min (Table 9)): 62%
% cleavage MMP-7 t = 60 min (MMP-7; t = 60 min (Table 9)): 96%
% cleavage MMP-7 t = 120 min (MMP-7; t = 120 min (Table 9)): 100%
% cleavage Matriptase t = 15 min (matriptase; pH 6.5, t = 15 min (Table 7)): 5%
% cleavage Matriptase t = 60 min (matriptase; pH 6.5, t = 60 min (Table 7)): 26%
% cleavage Matriptase t = 15 min (matriptase; pH 7.5, t = 15 min (Table 7)): 25%
% cleavage Matriptase t = 60 min (matriptase; pH 7.5, t = 60 min (Table 7)): 68%
% cleavage Matriptase t = 15 min (matriptase; [4]): 29%
% cleavage Matriptase t = 60 min (matriptase; [5]): 81%
% cleavage Matriptase t = 120 min (matriptase; [6]): 96%
% cleavage MMP-2 t = 15 min (MMP-2; pH 6.5, t = 15 min (Table 7)): 93%
% cleavage MMP-2 t = 60 min (MMP-2; pH 6.5, t = 60 min (Table 7)): 100%
% cleavage MMP-2 t = 15 min (MMP-2; pH 7.5, t = 15 min (Table 7)): 37%
% cleavage MMP-2 t = 60 min (MMP-2; pH 7.5, t = 60 min (Table 7)): 100%
% cleavage MMP-2 t = 15 min (MMP-2; t = 15 min (Table 9)): 89%
% cleavage MMP-2 t = 15 min (MMP-2; [7]): 90%
% cleavage MMP-2 t = 60 min (MMP-2; t = 60 min (Table 9)): 97%
% cleavage MMP-2 t = 60 min (MMP-2; [8]): 99%
% cleavage MMP-2 t = 120 min (MMP-2; t = 120 min (Table 9)): 100%
% cleavage MMP-2 t = 120 min (MMP-2; [9]): 99%
% cleavage uPA t = 60 min (uPA; pH 6.5, t = 60 min (Table 7)): 0%
% cleavage uPA t = 120 min (uPA; pH 6.5, t = 120 min (Table 7)): 0%
% cleavage uPA t = 60 min (uPA; pH 7.5, t = 60 min (Table 7)): 7%
% cleavage uPA t = 120 min (uPA; pH 7.5, t = 120 min (Table 7)): 13%
% cleavage uPA t = 15 min (uPA; [10]): 1%
% cleavage uPA t = 60 min (uPA; [11]): 6%
% cleavage uPA t = 120 min (uPA; [12]): 12%
% cleavage MMP-9 t = 15 min (MMP-9; t = 15 min (Table 9)): 43%
% cleavage MMP-9 t = 60 min (MMP-9; t = 60 min (Table 9)): 94%
% cleavage MMP-9 t = 120 min (MMP-9; t = 120 min (Table 9)): 100%

RGRRPLGYFGKL ([2Abz]RGRRPLGYFGKL[Tyr(3-NO2)]-NH2) [LNK057]
% cleavage MMP-7 t = 15 min (MMP-7; t = 15 min (Table 9)): 0%
% cleavage MMP-7 t = 60 min (MMP-7; t = 60 min (Table 9)): 0%
% cleavage MMP-7 t = 120 min (MMP-7; t = 120 min (Table 9)): 0%
% cleavage Matriptase t = 15 min (matriptase; [4]): 22%
% cleavage Matriptase t = 60 min (matriptase; [5]): 78%
% cleavage Matriptase t = 120 min (matriptase; [6]): 100%
% cleavage MMP-2 t = 15 min (MMP-2; t = 15 min (Table 9)): 71%
% cleavage MMP-2 t = 15 min (MMP-2; [7]): 71%
% cleavage MMP-2 t = 60 min (MMP-2; t = 60 min (Table 9)): 100%
% cleavage MMP-2 t = 60 min (MMP-2; [8]): 100%
% cleavage MMP-2 t = 120 min (MMP-2; t = 120 min (Table 9)): 100%
% cleavage MMP-2 t = 120 min (MMP-2; [9]): 100%
% cleavage uPA t = 15 min (uPA; [10]): 0%
% cleavage uPA t = 60 min (uPA; [11]): 0%
% cleavage uPA t = 120 min (uPA; [12]): 0%
% cleavage MMP-9 t = 15 min (MMP-9; t = 15 min (Table 9)): 20%
% cleavage MMP-9 t = 60 min (MMP-9; t = 60 min (Table 9)): 100%
% cleavage MMP-9 t = 120 min (MMP-9; t = 120 min (Table 9)): 100%
